# Results published in US7226992B1, “Mutant Bcl-2 proteins and uses thereof” (Abbott Laboratories, priority 2000, dated 2007).
# Residues, ends and D or L forms follow the SMILES beside them. Primed or numbered codes have the meaning given here. No end group written: not given here. *: point of attachment. 5FAM = O=C1OC2(c3ccc(O)cc3Oc3cc(O)ccc32)c2ccc(C(=O)*)cc21; FITC′ = fluorescein isothiocyanate
# Assays:
# Bcl-2/iso1 [1] = target: T1, Bcl-2/iso1 (Homo sapiens, UniProt P10415, DEL35-91/INS34DVEENRTEAPEGTESE/R110G/T96A); assay: Competitive fluorescence polarization assay, peptide binding to Bcl-2/iso1
# T1 construct: His tag (pET28b, thrombin-cleavable) (N, cleaved yes); made in house; host or cells: E. coli BL21(DE3)
# T1 sequence (P10415 with tags, fused parts or gaps with the stated changes): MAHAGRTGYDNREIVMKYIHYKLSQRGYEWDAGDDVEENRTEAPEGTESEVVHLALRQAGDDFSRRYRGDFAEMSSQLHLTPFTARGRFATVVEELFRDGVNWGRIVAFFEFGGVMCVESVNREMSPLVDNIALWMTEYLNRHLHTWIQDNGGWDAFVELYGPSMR
# Procedure: A competitive fluorescence polarization assay was used to measure the affinity of various peptides for Bcl-2/iso1 (see Table 2) or Bcl-2/iso2 (see Table 3). Competitive assays were performed using one of the following three fluorescein-labeled peptides as a probe:
# (§1) All titrations were automated by means of an Abbott clinical diagnostics instrument (IMx, FPIA mode) modified with a special protocol for performing titrations. A complete two-fold dilution series, comprised of twenty separate 2 mL samples, was obtained by delivering appropriate individual aliquots to the first seven tubes, aliquots from an intermediate diluted stock for the next seven, and one more intermediate dilution for the final six. […] The final DMSO concentration for all samples never exceeded 1%. Twenty 1.8 uL samples were prepared without fluoresceinatedpeptide and read as blanks. To each tube, 0.2 uL of a Bcl-2, fluoresceinatedpeptide mixture was added; the tubes were incubated for 5 min at 35° C., and then read for total intensity and polarization.
# [2] = Isoelectric point of Bcl-2 / Bcl-xL proteins; assay type: physicochemical, human; conditions: pH at which the protein carries no net charge
# Source text: As used herein, the term “isoelectric point” (or pI) refers to the pH at which the protein carries no net charge. The isoelectric points of Bcl-2/iso1, Bcl-2/iso2, and Bcl-2/iso3 are about 7.0, 7.2 and 7.2, respectively. The mutant proteins of the present invention have an isoelectric point lower than that of wild-type Bcl-2 and preferably, in the range of 4.5 to about 6.0. More preferably, the isoelectric point of a mutant protein of the invention is from 4.5 to about 5.5. A more preferred isoelectric point is from about 5.0 to about 5.5. A most preferred isoelectric point is 5.0. Means for determining the isoelectric point of a protein are well known to those of ordinary skill in the art.
# Bcl-2/iso1 [3] = target: T1, Bcl-2/iso1; assay: Fluorescence polarization titration of fluoresceinated probe peptides with Bcl-2/iso1; assay type: binding
# Procedure: (3) (FITC)-AAQRYGRELRRMSDEFVR(SEQ ID NO:19). The dissociation constants of these fluoresceinated peptides from Bcl-2/iso1 are ˜20 nM, ˜50 nM, and ˜100 nM, respectively.
# as §1, with “The concentrations of the” for “The final”, “DMSO stock solutions of the peptide were 1–4 mM as determined by Trp absorbance (O.D. 280 nm), Tyr absorbance (O.D. 293), or amino acid analysis. […]” for “DMSO concentration for all samples never exceeded 1%.”, “polarization. […]” for “polarization.”
# Steady state polarization data can be analyzed to extract the fractions of bound and free fluorescent ligand owing to the linear additivity of their anisotropy values, weighted by their respective fractional intensities (Lakowicz, JR. Principles of Fluorescence Spectroscopy. New York, N.Y.: Plenum Press (1983)). […]
# [4] = target: mutant Bcl-2/iso1 protein (Bcl-2/iso1 residues 1-34, Bcl-xL loop residues 29-44, Bcl-2/iso1 residues 92-207; plasmid C) (human); assay: competitive fluorescence polarization, displacement of a fluorescein-labeled peptide probe from Bcl-2 (340 nM)
# [5] = target: mutant Bcl-2/iso2 protein (plasmid C construct with Ala96 to Thr96 and Gly110 to Arg110; plasmid D) (human); assay: as above
# [6] = target: mutant Bcl-2/iso1 protein (Bcl-2/iso1 residues 1-34, Bcl-xL loop residues 29-44, Bcl-2/iso1 residues 92-207; plasmid C) (human); assay: fluorescence polarization, direct titration of the fluoresceinated peptide with Bcl-2
Kd [4],Molecule,Kd (Bcl-2/iso1 [1]),further results
,ALWAAQRYGRELRRMSDEFVDSFKK [SEQ ID NO:21],211 nM,
,NLWAAQRYGRELRRMSAEFVDSFKK [SEQ ID NO:34],762 nM,
,Bcl-2/iso2: wild-type human Bcl-2 protein isoform 2 (SEQ ID NO:4),,isoelectric point [2]: ~7.2
,NAWAAQRYGRELRRMSDEFVDSFKK [SEQ ID NO:22],75 nM,
,AAAAAQRYGRELRRMSDEFVDSFKK [SEQ ID NO:17],74 nM,
,NLAAAQRYGRELRRMSDEFVDSFKK [SEQ ID NO:23],39 nM,
,NLWAAQRYGRELRRMSDEFVD [SEQ ID NO:36],2330 nM,
,NLWAAQRYGRELRRMSDEFVDSAKK [SEQ ID NO:27],397 nM,
,CSCC[C@H](NC(=O)[C@H](CCCNC(=N)N)NC(=O)[C@H](CCCNC(=N)N)NC(=O)[C@H](CC(C)C)NC(=O)[C@H](CCC(=O)O)NC(=O)[C@H](CCCNC(=N)N)NC(=O)CNC(=O)[C@H](Cc1ccc(O)cc1)NC(=O)[C@H](CCCNC(=N)N)NC(=O)[C@H](CCC(N)=O)NC(=O)[C@H](C)NC(=O)[C@H](C)NC(=O)[C@H](C)NC(=O)[C@H](C)NC(=O)[C@H](C)NC(=O)c1ccc2c(c1)C(=O)OC21c2ccc(O)cc2Oc2cc(O)ccc21)C(=O)N[C@@H](CO)C(=O)N[C@@H](CC(=O)O)C(=O)N[C@@H](CCC(=O)O)C(=O)N[C@@H](Cc1ccccc1)C(=O)N[C@H](C(=O)N[C@@H](CC(=O)O)C(=O)N[C@@H](CO)C(=O)N[C@@H](CCCCN)C(=O)N[C@@H](CCCCN)C(=O)O)C(C)C (5FAM-AAAAAQRYGRELRRMSDEFVDSKK-OH; C-terminus assumed),,Kd (Bcl-2/iso1 [3]): ~50 nM
,NLWAAQRYGRELRRMSDEFVDSFKA [SEQ ID NO:29],22 nM,
,CSCC[C@H](NC(=O)[C@H](CCCNC(=N)N)NC(=O)[C@H](CCCNC(=N)N)NC(=O)[C@H](CC(C)C)NC(=O)[C@H](CCC(=O)O)NC(=O)[C@H](CCCNC(=N)N)NC(=O)CNC(=O)[C@H](Cc1ccc(O)cc1)NC(=O)[C@H](CCCNC(=N)N)NC(=O)[C@H](CCC(N)=O)NC(=O)[C@H](C)NC(=O)[C@H](C)NC(=O)[C@H](C)NC(=O)[C@H](C)NC(=O)[C@H](C)NC(=O)c1ccc2c(c1)C(=O)OC21c2ccc(O)cc2Oc2cc(O)ccc21)C(=O)N[C@@H](CO)C(=O)N[C@@H](CC(=O)O)C(=O)N[C@@H](CCC(=O)O)C(=O)N[C@@H](Cc1ccccc1)C(=O)N[C@H](C(=O)N[C@@H](CC(=O)O)C(=O)N[C@@H](CO)C(=O)N[C@@H](Cc1ccccc1)C(=O)N[C@@H](CCCCN)C(=O)N[C@@H](CCCCN)C(=O)O)C(C)C (5FAM-AAAAAQRYGRELRRMSDEFVDSFKK-OH),,Kd (Bcl-2/iso1 [3]): ~20 nM
,NLWAAQRYGRELRRMSDEFVDAFKK [SEQ ID NO:26],26 nM,
,NLWAAQRYGRELRRMSDEFVDSFAK [SEQ ID NO:28],123 nM,
,QRYGRELRRMSDEFVDSFKK [SEQ ID NO:35],711 nM,
,NLWGAQRYGRELRRMSDEFVDSFKK [SEQ ID NO:24],159 nM,
,GGGAAQRYGRELRRMSDEFVDSFKK [SEQ ID NO:30],63 nM,
,NLWAGQRYGRELRRMSDEFVDSFKK [SEQ ID NO:25],105 nM,
,NLPAAQRYGRELRRMSDEFVDSFKK [SEQ ID NO:31],54 nM,
,NLWAAQRYGREARRMSDEFVDSFKK [SEQ ID NO:33],7480 nM,
,NLWAAQRYARELRRMSDEFVAAFKK [SEQ ID NO:32],186 nM,
397 nM,NLWAAQRYGRELRRMSDEFVDSAKK [peptide … (SEQ ID NO:27)],,

Kd [4],Molecule,Kd (Bcl-2/iso1 [1]),further results
14 nM,NLWAAQRYGRELRRMSDEFVDSFKK [peptide … (SEQ ID NO:20)],,Kd [5]: 8 nM
26 nM,NLWAAQRYGRELRRMSDEFVDAFKK [peptide … (SEQ ID NO:26)],,
186 nM,NLWAAQRYARELRRMSDEFVAAFKK [peptide … (SEQ ID NO:32)],,
22 nM,NLWAAQRYGRELRRMSDEFVDSFKA [peptide … (SEQ ID NO:29)],,
75 nM,NAWAAQRYGRELRRMSDEFVDSFKK [peptide … (SEQ ID NO:22)],,
211 nM,ALWAAQRYGRELRRMSDEFVDSFKK [peptide … (SEQ ID NO:21)],,
,"{FITC′}-AAQRYGRELRRMSDEFVR [(FITC)-… (SEQ ID NO:19), fluorescein-labeled peptide probe (3)]",,Kd [6]: 100 nM
39 nM,NLAAAQRYGRELRRMSDEFVDSFKK [peptide … (SEQ ID NO:23)],,
,"5FAM-AAAAAQRYGRELRRMSDEFVDSKK [(5-FAM)-… (SEQ ID NO:18), fluorescein-labeled peptide probe (2)]",,Kd [6]: 50 nM
54 nM,NLPAAQRYGRELRRMSDEFVDSFKK [peptide … (SEQ ID NO:31)],,
159 nM,NLWGAQRYGRELRRMSDEFVDSFKK [peptide … (SEQ ID NO:24)],,
7480 nM,NLWAAQRYGREARRMSDEFVDSFKK [peptide … (SEQ ID NO:33)],,
63 nM,GGGAAQRYGRELRRMSDEFVDSFKK [peptide … (SEQ ID NO:30)],,
74 nM,"AAAAAQRYGRELRRMSDEFVDSFKK [peptide … (SEQ ID NO:17), not labeled]",,
2330 nM,NLWAAQRYGRELRRMSDEFVD [peptide … (SEQ ID NO:36)],,
105 nM,NLWAGQRYGRELRRMSDEFVDSFKK [peptide … (SEQ ID NO:25)],,
123 nM,NLWAAQRYGRELRRMSDEFVDSFAK [peptide … (SEQ ID NO:28)],,
,"5FAM-AAAAAQRYGRELRRMSDEFVDSFKK [(5-FAM)-… (SEQ ID NO:17), fluorescein-labeled peptide probe (1)]",,Kd [6]: 20 nM
711 nM,QRYGRELRRMSDEFVDSFKK [peptide … (SEQ ID NO:35)],,
,GQVGRQLAIIGDDINR [peptide … (SEQ ID NO:37)],,Kd [5]: 1600 nM
762 nM,NLWAAQRYGRELRRMSAEFVDSFKK [peptide … (SEQ ID NO:34)],,
